Measured values taken from patent US20100092464A1 (Novartis, published 2010).
Numbering of substitutions follows the chain as printed.

T1: human macrophage colony stimulating factor (M-CSF) (human, UniProt P09603 33-190, limits assumed)
T1 construct: The construct used in the Biacore, SPOTs and proliferation assays is not defined; also called CSF-1; recombinant human M-CSF
T1 sequence: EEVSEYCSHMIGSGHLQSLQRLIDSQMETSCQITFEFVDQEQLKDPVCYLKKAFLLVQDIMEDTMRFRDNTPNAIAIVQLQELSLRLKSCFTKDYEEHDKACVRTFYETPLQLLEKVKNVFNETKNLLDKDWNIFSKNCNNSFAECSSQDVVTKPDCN

B1: M-CSF-specific murine monoclonal antibody RX1 (antibody, V domains shown)
VH: DVQLQESGPGLVKPSQSLSLTCTVTDYSITSDYAWNWIRQFPGNKLEWMGYISYSGSTSYNPSLKSRISITRDTSKNQFFLQLNSVTTEDTATYYCASFDYAHAMDYWGQGTSVTVSS
VL: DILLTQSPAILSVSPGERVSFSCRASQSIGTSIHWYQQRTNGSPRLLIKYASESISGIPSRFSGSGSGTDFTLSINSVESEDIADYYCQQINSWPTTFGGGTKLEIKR
notes: Hybridoma-derived and recombinant murine RX1 are written as one molecule; also called Murine RX1; rRX1(mouse)
B2: Human Engineered RX1 antibody heRX1-10.G2 (antibody, V domains shown)
VH: QVQLQESGPGLVKPSQTLSLTCTVSDYSITSDYAWNWIRQFPGKGLEWMGYISYSGSTSYNPSLKSRITISRDTSKNQFSLQLNSVTAADTAVYYCASFDYAHAMDYWGQGTTVTVSS
VL: DIVLTQSPAFLSVTPGEKVTFTCQASQSIGTSIHWYQQKTDQAPKLLIKYASESISGIPSRFSGSGSGTDFTLTISSVEAEDAADYYCQQINSWPTTFGGGTKLEIKR
notes: Human Gamma-2 / Kappa constant regions
B3: Human Engineered RX1 antibody heRX1-9.G2 (antibody, V domains shown)
VH: B2 VH with Q1D, S25T, G45K, V93T
VL: B2 VL
notes: as for B2
B4: Fab fragment of recombinant murine RX1 (Fab, V domains shown)
VH: B1 VH
VL: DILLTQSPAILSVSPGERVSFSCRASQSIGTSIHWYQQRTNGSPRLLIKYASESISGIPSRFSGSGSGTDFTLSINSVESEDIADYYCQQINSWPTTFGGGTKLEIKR
B5: Human Engineered RX1 antibody heRX1-1.G2 (antibody, V domains shown)
VH: B2 VH with Q1D, S25T, G45K, V93T
VL: EIVLTQSPGTLSVSPGERVTFSCRASQSIGTSIHWYQQKTGQSPRLLIKYASERISGIPDRFSGSGSGTDFTLTISRVESEDFADYYCQQINSWPTTFGQGTKLEIKR
B6: Human Engineered RX1 antibody heRX1-1.G1 (antibody, V domains shown)
VH: B2 VH with Q1D, S25T, G45K, V93T
VL: B5 VL
B7: Human Engineered RX1 antibody heRX1-1.G4 (antibody, V domains shown)
VH: B2 VH with Q1D, S25T, G45K, V93T
VL: B5 VL
B8: Human Engineered RX1 antibody heRX1-8.G2 (antibody, V domains shown)
VH: B2 VH
VL: B5 VL with S43A, R54S
B9: Human Engineered RX1 antibody heRX1-2.G2 (antibody, V domains shown)
VH: B2 VH
VL: B5 VL
B10: Human Engineered RX1 antibody heRX1-5.G2 (antibody, V domains shown)
VH: B2 VH with Q1D, S25T, G45K, V93T
VL: B5 VL with R54S
B11: Human Engineered RX1 antibody heRX1-4.G2 (antibody, V domains shown)
VH: B2 VH
VL: B5 VL with S43A, I55A, S56T
B12: Human Engineered RX1 antibody heRX1-3.G2 (antibody, V domains shown)
VH: B2 VH with Q1D, S25T, G45K, V93T
VL: B5 VL with S43A, I55A, S56T
B13: Human Engineered RX1 antibody heRX1-7.G2 (antibody, V domains shown)
VH: B2 VH with Q1D, S25T, G45K, V93T
VL: B5 VL with S43A, R54S

Each binder was assayed against T1, human macrophage colony stimulating … (assay: M-CSF and antibody mixed at equal molar ratios; size exclusion chromatography or light scattering).
From the text: The antigen-antibody complexes that the various Human Engineered™ RX1 antibodies formed with MCSF were studied by combining M-CSF and antibody in buffer at equal molar ratios, followed by analysis of the size of the antigen-antibody complex using size exclusion chromatography or light scattering. […] The heRX1-9.G2 or 1-10.G2 antibodies appeared to form 2:1 or 2:2 complexes with MCSF of about 400 kDa. The heRX1-1.G2 appeared to form large lattice aggregates with MCSF of greater than 2×10⁶ Da. The IgG1 and IgG4 constructs formed small complexes similar to that of murine parent RX1.

Row | size of antigen-antibody complex [kDa] | Binder
1 | ~200 | B1
2 | ~400 | B2
3 | ~400 | B3

The binders below were run against T1, human macrophage colony stimulating … (assay: cell-based or functional assay).

Row | IC50 (read off the curve) [mg/L] | Binder
4 | ~0.02 | B1
5 | ~2 | B4

Biological target: T1, human macrophage colony stimulating …
Assay: cell-based or functional assay
Remark: another data set of the same source

Row | IC50 (read off the curve) [mg/L] | Binder
6 | ~0.02 | B5
7 | ~0.01 | B1
8 | ~0.01 | B6
9 | ~0.01 | B7

Biological target: T1, human macrophage colony stimulating …
Assay: cell-based or functional assay
Remark: another data set of the same source

Row | IC50 Fold Loss (M-NFS-60 cell proliferation) [fold] | Binder
10 | 2.8 | B5
11 | 2.2 | B2
12 | 5.9 | B8
13 | 3.1 | B9
14 | 6.5 | B10
15 | 4.6 | B11
16 | 3.6 | B3
17 | 5.3 | B12
18 | 6.1 | B13

Biological target: T1, human macrophage colony stimulating …
Assay: cell-based or functional assay
Remark: another data set of the same source

Row | EC50 (M-CSF neutralisation) [mg/L] | Binder
19 | 0.002 | B1

Biological target: T1, human macrophage colony stimulating …
Assay: cell-based or functional assay
Remark: another data set of the same source

Row | IC50 (read off the curve) [mg/L] | Binder
20 | ~0.03 | B5
21 | ~0.02 | B1
22 | ~0.02 | B6
23 | ~0.02 | B7
